Data reported in patent publication US20220380409A1.
Ends that are not written are not given here. Tz4 = ring closure through triazole, 4-carbon linker to triazole

Target: full-length Akt2 protein (Homo sapiens (Human)) (UniProt P31751)
Test: affinity estimation from immunoassays capturing full-length Akt2 protein (FIG. 6D)

B1: Cy(YYTYT (SEQ ID NO:4)-Tz4) (peptide)
peptide: YYTYT
modifications: triazole (positions not given here) via Tz4; also: ring closed via triazole between non-natural alkyne and azide residues flanking the sequence, variable region only, constant region not given here
fold higher affinity than the corresponding linear peptide: 30 fold
